Laboratory results from PMC12329599, “Acetylation of microtubule-binding PinX1 orchestrates ribosome biogenesis to nutrient starvation via the RNA polymerase I preinitiation complex” (The Journal of Biological Chemistry, 2025).

B1: GST-PinX1 full-length (natural protein, human, UniProt Q96BK5 1-328, looked up)
chain: MSMLAERRRKQKWAVDPQNTAWSNDDSKFGQRMLEKMGWSKGKGLGAQEQGATDHIKVQVKNNHLGLGATINNEDNWIAHQDDFNQLLAELNTCHGQETTDSSDKKEKKSFSLEEKSKISKNRVHYMKFTKGKDLSSRSKTDLDCIFGKRQSKKTPEGDASPSTPEENETTTTSAFTIQEYFAKRMAALKNKPQVPVPGSDISETQVERKRGKKRNKEATGKDVESYLQPKAKRHTEGKPERAEAQERVAKKKSAPAEEQLRGPCWDQSSKASAQDAGDHVQPPEGRDFTLKPKKRRGKKKLQKPVEIAEDATLEETLVKKKKKKDSK
notes: PinX1, human, full length, cloned into pGEX-4T-3; also called GST-PinX1 FL; full length GST-PinX1; source: TSsetta (DE3) bacteria, IPTG-induced, purified (Glutathione-Sepharose 4B)
B2: GST-PinX1 central section (aa 70–253) (domain or fragment, human, UniProt Q96BK5 70-253, looked up)
chain: TINNEDNWIAHQDDFNQLLAELNTCHGQETTDSSDKKEKKSFSLEEKSKISKNRVHYMKFTKGKDLSSRSKTDLDCIFGKRQSKKTPEGDASPSTPEENETTTTSAFTIQEYFAKRMAALKNKPQVPVPGSDISETQVERKRGKKRNKEATGKDVESYLQPKAKRHTEGKPERAEAQERVAKKK
notes: the truncations were of GST-PinX1; also called GST-PinX1 truncation; source: TSsetta (DE3) bacteria, IPTG-induced, purified (Glutathione-Sepharose 4B)

Target: T1, Strep2-POLR1G (human, UniProt O15446 1-510)
T1 construct: POLR1G (RNA polymerase I subunit G), human, cloned into pET45a-Strep2; also called Strep2-tagged POLR1G; source: TSsetta (DE3) bacteria, purified (anti-Strep2 tag agarose beads)
Assay: pull-down; GST-PinX1 proteins on glutathione beads incubated with purified Strep2- or HA-tagged proteins in BC200 buffer (200 mM NaCl, 20 mM Tris-HCl pH 7.9, 20% glycerol, 0.2% NP-40) at 4 °C overnight; washed with BC500, BC200 or BC100; Western blot
Conditions: both partners purified

T1 sequence (O15446 whole entry): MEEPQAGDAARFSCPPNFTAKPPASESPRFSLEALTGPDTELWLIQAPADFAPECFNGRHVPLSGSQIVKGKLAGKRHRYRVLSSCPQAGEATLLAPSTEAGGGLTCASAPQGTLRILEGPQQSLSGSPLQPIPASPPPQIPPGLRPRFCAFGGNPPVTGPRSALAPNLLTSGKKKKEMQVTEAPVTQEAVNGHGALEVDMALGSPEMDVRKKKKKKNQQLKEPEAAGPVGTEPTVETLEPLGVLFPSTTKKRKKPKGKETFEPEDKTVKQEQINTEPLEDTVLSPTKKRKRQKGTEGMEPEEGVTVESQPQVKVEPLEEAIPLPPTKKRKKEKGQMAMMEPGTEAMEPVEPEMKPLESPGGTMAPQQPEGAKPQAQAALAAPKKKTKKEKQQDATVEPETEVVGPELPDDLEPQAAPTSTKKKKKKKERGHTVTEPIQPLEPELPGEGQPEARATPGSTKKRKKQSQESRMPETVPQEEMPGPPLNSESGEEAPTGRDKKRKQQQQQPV

Binder	binding result
B1	binds
B2	binds
